The values below come from patent publication US20260042834A1, “ANTI-CORTICOTROPIN-RELEASING HORMONE ANTIBODIES AND POLYCYSTIC OVARY SYNDROME” (HBM ALPHA THERAPEUTICS, INC., priority 2022, published 2026).

One assay has as its system human CRHR2. The assay can be described thus: CRH-induced luciferase reporter blocking assay, CHO-CRE-hCRHR2 cells. The assay is classed as cell-based. The method, then:
To create CHO-CRE-hCRHR1, -hCRHR2, -mCRHR1, and -mCRHR2 reporter cell lines, pcDNA3.1-hCRHR1, -hCRHR2, -mCRHR1, and -mCRHR2 were introduced into CHO-CRE cells established above by electroporation as described above. Selection antibiotics hygromycin at 500 μg/ml and G418 at 1,000 μg/ml were employed. Individual established stable cell lines were characterized by both CRH and forskolin stimulation.
Activated GPCR proteins increase production of the intracellular cAMP. CHO-CRE-human CRHR1 stable clone 11 was generated by introduction of pcDNA3.1-human CRHR1 under the selection of G418 and hygromycin. Human CRHR1 expression in CHO-CRE-hCRHR1 Clone 11 was confirmed by flow cytometry (data not shown). To further validate that the cell line was functional, CHO-CRE-hCRHR1 Clone 11 cells were treated with forskolin and CRH peptide. […] Subsequently CHO-CRE-hCRHR2 Clone 32, -mCRHR1 Clone 22, and -mCRHR2 Clone 8 cell lines were established using similar methodology and validated with CRH treatment (data not shown).
Blocking CRHR1 by small molecules or neutralization of CRH peptide can reduce luciferase expression if the CRH-CRHR1 system works in CHO-CRE-hCRHR1 cells. Antalarmin, a small molecule CRHR1 antagonist, blocked CRH-mediated luciferase expression in CHO-CRE-hCRHR1 Clone 11 (data not shown). Furthermore, sheep anti-CRH polyclonal antibody reduced CRH-mediated luciferase expression in these cells (data not shown). Likewise, sheep anti-CRH polyclonal antibody blocked CRH-mediated luciferase expression in CHO-CRE-hCRHR2, CHO-CRE-mCRHR1, and CHO-CRE-mCRHR2 cells (data not shown).
(§1) Cells were digested by trypsin-EDTA (Life technologies, Cat #:12604-013), centrifuged at 1,000 rpm for 5 min, resuspended in growth medium, counted using a cell counter, seeded at a concentration of 5,000 cells per 100 μl in 96-well flat plates, and incubated overnight. 50 μl of 4× serially diluted antibodies was added (8 points, 1/4 diluted by growth medium) to plates containing CHO-CRE-hCRHR1 cells, and 50 μl of 4×CRH (4× is 2 nM, final is 0.5 nM) was added. Similarly, 4×CRH (4× is 0.4 nM, final is 0.1 nM) was added to CHO-CRE-hCRHR2 cells and CHO-CRE-mCRHR1 cells, and 4×CRH (4× is 20 nM, final is 5 nM) was added to CHO-CRE-mCRHR2 cells. Next, plates were incubated 4-6 hours at 37° C. in a CO2 incubator. 60 μl of culture medium was removed, to which was added 60 μl of Bio-Glo luciferase, followed by incubation for 10 min at RT. Plates were read in a luciferase plate reader (EnVision, PerkinElmer).
(A reporter such as luciferase makes a cellular process visible.)

For another assay, the system named is mouse CRHR2. The assay can be described thus: CRH-induced luciferase reporter blocking assay, CHO-CRE-mCRHR2 cells. The assay is classed as cell-based. The method, then:
To create CHO-CRE-hCRHR1, -hCRHR2, -mCRHR1, and -mCRHR2 reporter cell lines, pcDNA3.1-hCRHR1, -hCRHR2, -mCRHR1, and -mCRHR2 were introduced into CHO-CRE cells established above by electroporation as described above. Selection antibiotics hygromycin at 500 μg/ml and G418 at 1,000 μg/ml were employed. Individual established stable cell lines were characterized by both CRH and forskolin stimulation. […]
as §1

Setting [1] is: CHO-CRE-hCRHR2 cells, 0.1 nM CRH.

B1: PR302341-8: humanized variant of Series 10 mAb PR302341; VH SEQ ID NO: 281, VL SEQ ID NO: 340 (antibody, V domains shown)
VH: QVQLVQSGAEVKKPGASVKVSCKASGYTFTDYFMKWVRQAPGQGLEWMGVINPNNGDIFYNQKFKGRVTMTVDKSTSTAYMELSSLRSEDTAVYYCARGTDRALFAYWGQGTLVTVSS
VL: DVVMTQSPLSLPVTLGQPASISCRSGQSIVHSDGNTYLEWYQQRPGQSPRLLIYKVSNRFSGVPDRFSGSGSGTDFTLKISRVEAEDLGVYYCFQGSHIPWTFGGGTKVEIK
modifications: PR302341-10 VH, PR302341-11 VH, PR302341-12 VH, PR302341-14 VH,PR302341-67 VH, PR302341-68 VH, PR302341-69 VH, PR302341-7 VH,PR302341-8 VH, PR302341-9 VH; PR302341-19 VL, PR302341-20 VL, PR302341-21 VL, PR302341-22 VL,PR302341-23 VL, PR302341-28 VL, PR302341-29 VL, PR302341-2 VL,PR302341-41 VL, PR302341-55 VL, PR302341-56 VL, PR302341-57 VL,PR302341-
For the molecule B1, the IC50 was 0.293 nM in the assay on human CRHR2 (setting [1]) and 0.82 nM in the assay with mouse CRHR2 (CHO-CRE-mCRHR2 cells, 5 nM CRH).

B2: PR302341-10: humanized variant of Series 10 mAb PR302341; VH SEQ ID NO: 281, VL SEQ ID NO: 336 (antibody, V domains shown)
VH: QVQLVQSGAEVKKPGASVKVSCKASGYTFTDYFMKWVRQAPGQGLEWMGVINPNNGDIFYNQKFKGRVTMTVDKSTSTAYMELSSLRSEDTAVYYCARGTDRALFAYWGQGTLVTVSS
VL: DVVMTQTPLSSPVTLGQPASISCRSGQSIVHSDGNTYLEWYQQRPGQPPRLLIYKVSNRFSGVPDRFSGSGAGTDFTLKISRVEAEDLGVYYCFQGSHIPWTFGGGTKVEIK
modifications: PR302341-10 VH, PR302341-11 VH, PR302341-12 VH, PR302341-14 VH,PR302341-67 VH, PR302341-68 VH, PR302341-69 VH, PR302341-7 VH,PR302341-8 VH, PR302341-9 VH; PR302341-10 VL, PR302341-24 VL, PR302341-26 VL, PR302341-43 VL,PR302341-44 VL, PR302341-45 VL, PR302341-4 VL
Regarding B2, the IC50 in the assay on human CRHR2 (setting [1]) turned out to be 0.143 nM; with human CRHR2 (Table 9, hCRHR2) it was 0.83 nM; with mouse CRHR2 (CHO-CRE-mCRHR2 cells, 5 nM CRH), 1.22 nM; with mouse CRHR2 (Table 9, mCrhr2) it was 1.44 nM.

B3: PR302029: humanized variant of Series 5 mAb PR301777; VH SEQ ID NO: 255, VL SEQ ID NO: 310 (antibody, V domains shown)
VH: EVQLVESGGGLVQPGGSLRLSCAASGFTFSNYWMNWVRQAPGKGLEWVGEIRLKSNNYATHYAESVKGRFTISRDDSKNSLYLQMNSLKTEDTAVYYCTVGTLVYWGQGTLVTVSS
VL: DIVLTQSPDSLAVSLGERATINCRASQSVSTSTYNYMHWFQQKPGQPPKLLIKFASNLESGVPDRFSGSGSGTDFTLTISSLQAEDTAVYYCQHSWEIPYTFGQGTKLEIK
modifications: PR302029 VH, PR302031 VH, PR302034 VH; PR302029 VL, PR302036 VL, PR302043 VL, PR302050 VL, PR302064 VL
As to B3, the IC50 in the assay on human CRHR2 (setting [1]) was found to be 5.75 nM; with mouse CRHR2 (CHO-CRE-mCRHR2 cells, 5 nM CRH) it was 8.08 nM.

B4: PR302048: humanized variant of Series 5 mAb PR301777; VH SEQ ID NO: 257, VL SEQ ID NO: 312 (antibody, V domains shown)
VH: EVQLVESGGGLVQPGGSLKLSCAASGFTFSNYWMNWVRQASGKGLEWVGEIRLKSNNYATHYAESVKGRFTISRDDSKNTAYLQMNSLKTEDTAVYYCTRGTLVYWGQGTLVTVSS
VL: DIQLTQSPSSLSASVGDRVTITCRASQSVSTSTYNYMHWFQQKPGKAPKLLIKFASNLESGVPSRFSGSGSGTDFTLTISSLQPEDTATYYCQHSWEIPYTFGQGTKLEIK
modifications: PR302043 VH, PR302045 VH, PR302048 VH; PR302034 VL, PR302041 VL, PR302048 VL, PR302055 VL, PR302069 VL
With B4, the 50% inhibitory concentration (IC50) in the assay on human CRHR2 (setting [1]) stood at 13.9 nM; in the assay on mouse CRHR2 (CHO-CRE-mCRHR2 cells, 5 nM CRH) it was 6.32 nM.

B5: PR302041: humanized variant of Series 5 mAb PR301777; VH SEQ ID NO: 256, VL SEQ ID NO: 312 (antibody, V domains shown)
VH: EMQLVESGGGLVQPGGSLRLSCAASGFTFSNYWMNWVRQAPGKGLEWVAEIRLKSNNYATHYAESVKGRFTISRDDSKSSVYLQMNSLKTEDTAVYYCTVGTLVYWGQGTLVTVSS
VL: DIQLTQSPSSLSASVGDRVTITCRASQSVSTSTYNYMHWFQQKPGKAPKLLIKFASNLESGVPSRFSGSGSGTDFTLTISSLQPEDTATYYCQHSWEIPYTFGQGTKLEIK
modifications: PR302036 VH, PR302038 VH, PR302041 VH; PR302034 VL, PR302041 VL, PR302048 VL, PR302055 VL, PR302069 VL
B5: the IC50 with human CRHR2 (setting [1]) was 4.92 nM; in the assay with mouse CRHR2 (CHO-CRE-mCRHR2 cells, 5 nM CRH), 12.4 nM.

B6: PR302036: humanized variant of Series 5 mAb PR301777; VH SEQ ID NO: 256, VL SEQ ID NO: 310 (antibody, V domains shown)
VH: EMQLVESGGGLVQPGGSLRLSCAASGFTFSNYWMNWVRQAPGKGLEWVAEIRLKSNNYATHYAESVKGRFTISRDDSKSSVYLQMNSLKTEDTAVYYCTVGTLVYWGQGTLVTVSS
VL: DIVLTQSPDSLAVSLGERATINCRASQSVSTSTYNYMHWFQQKPGQPPKLLIKFASNLESGVPDRFSGSGSGTDFTLTISSLQAEDTAVYYCQHSWEIPYTFGQGTKLEIK
modifications: PR302036 VH, PR302038 VH, PR302041 VH; PR302029 VL, PR302036 VL, PR302043 VL, PR302050 VL, PR302064 VL
Turning to B6, the IC50 with human CRHR2 (setting [1]) was determined as 2.21 nM; in the assay with mouse CRHR2 (CHO-CRE-mCRHR2 cells, 5 nM CRH), 5.42 nM.

B7: PR302043: humanized variant of Series 5 mAb PR301777; VH SEQ ID NO: 257, VL SEQ ID NO: 310 (antibody, V domains shown)
VH: EVQLVESGGGLVQPGGSLKLSCAASGFTFSNYWMNWVRQASGKGLEWVGEIRLKSNNYATHYAESVKGRFTISRDDSKNTAYLQMNSLKTEDTAVYYCTRGTLVYWGQGTLVTVSS
VL: DIVLTQSPDSLAVSLGERATINCRASQSVSTSTYNYMHWFQQKPGQPPKLLIKFASNLESGVPDRFSGSGSGTDFTLTISSLQAEDTAVYYCQHSWEIPYTFGQGTKLEIK
modifications: PR302043 VH, PR302045 VH, PR302048 VH; PR302029 VL, PR302036 VL, PR302043 VL, PR302050 VL, PR302064 VL
Take B7: the IC50 in the assay on human CRHR2 (setting [1]) is 5.25 nM; in the assay on mouse CRHR2 (CHO-CRE-mCRHR2 cells, 5 nM CRH) it was 6.17 nM.

B8: PR302034: humanized variant of Series 5 mAb PR301777; VH SEQ ID NO: 255, VL SEQ ID NO: 312 (antibody, V domains shown)
VH: EVQLVESGGGLVQPGGSLRLSCAASGFTFSNYWMNWVRQAPGKGLEWVGEIRLKSNNYATHYAESVKGRFTISRDDSKNSLYLQMNSLKTEDTAVYYCTVGTLVYWGQGTLVTVSS
VL: DIQLTQSPSSLSASVGDRVTITCRASQSVSTSTYNYMHWFQQKPGKAPKLLIKFASNLESGVPSRFSGSGSGTDFTLTISSLQPEDTATYYCQHSWEIPYTFGQGTKLEIK
modifications: PR302029 VH, PR302031 VH, PR302034 VH; PR302034 VL, PR302041 VL, PR302048 VL, PR302055 VL, PR302069 VL
Turning to B8, the IC50 in the assay with human CRHR2 (setting [1]) is 10.2 nM; in the assay on mouse CRHR2 (CHO-CRE-mCRHR2 cells, 5 nM CRH) it was 29.3 nM.

As usually defined, the IC50 is the point on the concentration scale where inhibition reaches its midpoint.
